B1: Apoptosis-associated speck-like protein containing a CARD, residues 114 to 194; numbered along this chain, Q9ULZ3 (parent)
chain: FIDQHRAALIARVTNVEWLLDALYGKVLTDEQYQAVRAEPTNPSKMRKLFSFTPAWNWTCKDLLLQALRESQSYLVEDLER

± gives the uncertainty stated by the source.

Experimental findings from the Human Domainome abundance scans (Beltran et al. 2025) are described below.

The series covers variants of B1. The series is described as follows: abundance fitness (aPCA) (normalised: wild type 0, dead -1); higher = more abundant; growth selection in yeast, the domain comes from the species named. The note with it: Homo sapiens.
Turning to FIDQHRAALIARVTNVEWLLDALYGKVLTDEQYQAVRAEPTNPSKMRKLFSFTPAWNWTCKDLLLQALRESQSYLVEDMER, the abundance fitness is -0.668 ± 0.19.
On to FIDQHRAALIARVTNVEWLLDALYGKVLTDEQYQAVRAEPTNPSKMRKLFSFTPAWNWTCKDLLLQALRESQSYLVEDAER, for which the abundance fitness is -0.726 ± 0.11.
Under FIDQHRAALIARVTNVEWLLDALYGKVLTDEQYQAVRAEPTNPSKMRKLFSFTPAWNWTCKDLLLQALRSSQSYLVEDLER stands -0.265 ± 0.067.
Under FIDQHRAALIARVTNVEWLLDALYGKVLTDEQTQAVRAEPTNPSKMRKLFSFTPAWNWTCKDLLLQALRESQSYLVEDLER stands -0.188 ± 0.086; under FIDQHRAALIARVTNVEWLLDALYGKVLTDEQYQAVRAEPTNPSKMRKLFSFTPAWNWTCEDLLLQALRESQSYLVEDLER, -0.337 ± 0.089.
Under FIDQSRAALIARVTNVEWLLDALYGKVLTDEQYQAVRAEPTNPSKMRKLFSFTPAWNWTCKDLLLQALRESQSYLVEDLER stands -0.657 ± 0.09; under FIDQHRAALIARVTNVEWLLDALYGKVLTDEQYQAVRAEPTNPSKMRKLFSFTPAWNWTCKDYLLQALRESQSYLVEDLER, -0.028 ± 0.12.
Turning to FIDQHRAALIARVTNVEWLLDALYGKVLTDEQYQAVRAEPTNPSKMRKLFSFTPAWNWTCKDWLLQALRESQSYLVEDLER, the abundance fitness was -0.543 ± 0.096.
Under FIDQHRAALIARVTNVEWLLDALYGKVLTDEQYQAVRAEPTNPSKMRKLFSFTPAWNWTCKDILLQALRESQSYLVEDLER stands -0.359 ± 0.2; under FIDQHRAALIARVTNVEWLLDALYGKVLTDEQYQAVRAEPTNPSKMRKLFSFTPAWNWTCKDGLLQALRESQSYLVEDLER, -0.862 ± 0.082; under FIDQHRAALIARVTNVEWLLDALYGKVLTDEQYQAVRAEPTNPSKMRKLFSFTPAWNWTCKDQLLQALRESQSYLVEDLER, -0.243 ± 0.098.
Regarding FIDQHRAALIARVTNVEWLLDALYGKVLTDEQYQAHRAEPTNPSKMRKLFSFTPAWNWTCKDLLLQALRESQSYLVEDLER, the abundance fitness is -0.819 ± 0.28.
With FIDQHRAALIARVTNVEYLLDALYGKVLTDEQYQAVRAEPTNPSKMRKLFSFTPAWNWTCKDLLLQALRESQSYLVEDLER, the abundance fitness came out at 0.186 ± 0.093.
Consider FIDQHRAALIARKTNVEWLLDALYGKVLTDEQYQAVRAEPTNPSKMRKLFSFTPAWNWTCKDLLLQALRESQSYLVEDLER, for which the abundance fitness was -0.899 ± 0.2.
FIDQHRAALIARYTNVEWLLDALYGKVLTDEQYQAVRAEPTNPSKMRKLFSFTPAWNWTCKDLLLQALRESQSYLVEDLER: the abundance fitness is -0.729 ± 0.24.
As to FIDQHRAALIARVTNVEWLLDALYGKVLTDEQYQAVRAEPTNPSKGRKLFSFTPAWNWTCKDLLLQALRESQSYLVEDLER, the abundance fitness was -0.949 ± 0.089.
FIDQHRAALIARVTNWEWLLDALYGKVLTDEQYQAVRAEPTNPSKMRKLFSFTPAWNWTCKDLLLQALRESQSYLVEDLER: the abundance fitness was -0.533 ± 0.084.
As to FIDQHRAALIARVTNPEWLLDALYGKVLTDEQYQAVRAEPTNPSKMRKLFSFTPAWNWTCKDLLLQALRESQSYLVEDLER, the abundance fitness was -0.35 ± 0.068.
Under FIDQHRAALIARVTNVEWLLDALYGKILTDEQYQAVRAEPTNPSKMRKLFSFTPAWNWTCKDLLLQALRESQSYLVEDLER stands -0.392 ± 0.12.
Under FIDQHRAALIARVTNVEWLLDALYGKVLTDEQYQAVRAEPTNPSKMRWLFSFTPAWNWTCKDLLLQALRESQSYLVEDLER stands -0.35 ± 0.088; under FIDQHRAALIARVTNVEWLLDALYGKVLTDEQYQAVRAEPTNPSKMRKLFSFTPAWNWTCKDLLLSALRESQSYLVEDLER, -0.322 ± 0.066.
In the case of FIDQHRAALIARVTNVEWLLDALYGKVLTDEQYQAVRAEPTNPSKMRKLFSFTPAWNWTCKDLLLQALRESQSYLGEDLER, the abundance fitness was -0.587 ± 0.075.
Turning to FIDQHFAALIARVTNVEWLLDALYGKVLTDEQYQAVRAEPTNPSKMRKLFSFTPAWNWTCKDLLLQALRESQSYLVEDLER, the abundance fitness is -0.538 ± 0.15.
Under FIDQHRAALIARVTNVEWLLDALYGKVLTDEQYQAVRAEPTNPSKMRKLFSFTPAWCWTCKDLLLQALRESQSYLVEDLER stands -0.269 ± 0.1.
Under FIDQHRAALIARVTNVEWLLDALYGKVLTDEQYQAVRAEPTNPSKMRKLFSFTPAWPWTCKDLLLQALRESQSYLVEDLER stands -0.233 ± 0.081; under FIDQHRAALIARVTNVEWLLDALYGKVLTDEQYQAVRANPTNPSKMRKLFSFTPAWNWTCKDLLLQALRESQSYLVEDLER, -0.26 ± 0.24.
Regarding FIDQHRAALIARVTNVEWLLDALYGKVLTDEQYQAVRAQPTNPSKMRKLFSFTPAWNWTCKDLLLQALRESQSYLVEDLER, the abundance fitness is -0.293 ± 0.11.
In the case of FIDQHRAALIARVTNVEWLDDALYGKVLTDEQYQAVRAEPTNPSKMRKLFSFTPAWNWTCKDLLLQALRESQSYLVEDLER, the abundance fitness was -0.518 ± 0.12.
Under FIDQHREALIARVTNVEWLLDALYGKVLTDEQYQAVRAEPTNPSKMRKLFSFTPAWNWTCKDLLLQALRESQSYLVEDLER stands 0.295 ± 0.069; under FIDQHRAALIARVTNVEWLLDALYGKVLTDEQYQAVRAEPTNMSKMRKLFSFTPAWNWTCKDLLLQALRESQSYLVEDLER, -0.138 ± 0.07.
Under FIDQHRAALIARVTNVEWLLDALYGKVLTDEQYQAVRAEPTNYSKMRKLFSFTPAWNWTCKDLLLQALRESQSYLVEDLER stands -0.593 ± 0.13; under FIDQHRAALIARVTNVEWLLDALYGKVLTDEQYQAVRAEPTNNSKMRKLFSFTPAWNWTCKDLLLQALRESQSYLVEDLER, -0.241 ± 0.11.
In the case of FIDQHRAALIARVTNVEWLLDALYGKVLTDEQYQAVRAEPTNKSKMRKLFSFTPAWNWTCKDLLLQALRESQSYLVEDLER, the abundance fitness was -0.114 ± 0.086.
Under FIDQHRAALIARVTNVEWLLDALYGKVLTDEQYQAVRAEPTNPSKMRKLFSFTPAWNWTCKDLLLQAVRESQSYLVEDLER stands -0.527 ± 0.078.
Under FIDQHRAALIARVTNVEWLLDALYGKVLTDEQYQAVRAEPTNPSKMRKLFSFTPAWNWTCKDLLLQAFRESQSYLVEDLER stands -0.477 ± 0.17; under FIDQHRAALIARVTNVEWLLDALYGKVLTDEQYQAVRAEPTNPSKMRKLFSFTPAWNWTCKDLLLQALRESQSYWVEDLER, -0.868 ± 0.12; under FIDQHRAALIARVTNVEWLLDALYGKVLTDEQYQAVRAEPTNPSKMRKLFSFTPAWNWTCKDLLLQALNESQSYLVEDLER, -0.581 ± 0.16.
As to FIDQHRAALIARVTNVEWLLDALYGKVLTDEQYQAVRAEPTNPSKMRKLFSFTPAWNWTCKDLLLQALCESQSYLVEDLER, the abundance fitness was -0.367 ± 0.13.
Under FIDQHRAALIARVTNVEWLLDALYGKVLTDEQYQAVRAEPTNPSKMRKLFSFIPAWNWTCKDLLLQALRESQSYLVEDLER stands -0.055 ± 0.12.
Consider FIDQHRAALIARVTNVWWLLDALYGKVLTDEQYQAVRAEPTNPSKMRKLFSFTPAWNWTCKDLLLQALRESQSYLVEDLER, for which the abundance fitness is -0.642 ± 0.12.
As to FIDQHRAALIARVTNVEWLLDALYGKVLTDEQYQAVRAEPTNPSKMRKLFSFTPAWNWTCKDLLLQALRESKSYLVEDLER, the abundance fitness is -0.626 ± 0.15.
Take FIDQHRAALIARVTNVEWLLRALYGKVLTDEQYQAVRAEPTNPSKMRKLFSFTPAWNWTCKDLLLQALRESQSYLVEDLER: the abundance fitness was -0.33 ± 0.04.
For the variant FIDQHRAALIARVTNVEWLLLALYGKVLTDEQYQAVRAEPTNPSKMRKLFSFTPAWNWTCKDLLLQALRESQSYLVEDLER, the abundance fitness is -0.695 ± 0.091.
Under GIDQHRAALIARVTNVEWLLDALYGKVLTDEQYQAVRAEPTNPSKMRKLFSFTPAWNWTCKDLLLQALRESQSYLVEDLER stands -0.968 ± 0.25; under FIDQHRAALIARVTNVEWLLDALYGKVLTDEQYQAVRAEPTNPSKMRKLRSFTPAWNWTCKDLLLQALRESQSYLVEDLER, -0.81 ± 0.086; under FIDQHRAALIARVTNVEWLLDALYGKVLTDEQYQAVRAEPTDPSKMRKLFSFTPAWNWTCKDLLLQALRESQSYLVEDLER, -0.221 ± 0.099.
On to FIDQHRAALAARVTNVEWLLDALYGKVLTDEQYQAVRAEPTNPSKMRKLFSFTPAWNWTCKDLLLQALRESQSYLVEDLER, for which the abundance fitness was -0.714 ± 0.097.
Under FIDQHRAALIARVTYVEWLLDALYGKVLTDEQYQAVRAEPTNPSKMRKLFSFTPAWNWTCKDLLLQALRESQSYLVEDLER stands -0.555 ± 0.2; under FIDQHRAALIARVTNVEWLLDALYGKVLTDEQYQAVRAEPTNPSKMRKLFSFTPACNWTCKDLLLQALRESQSYLVEDLER, -0.957 ± 0.5; under FIDQHRAALIARVTNVEWLLDALYGKVLTDEQYQNVRAEPTNPSKMRKLFSFTPAWNWTCKDLLLQALRESQSYLVEDLER, -0.851 ± 0.29.
On to FIDQHRAALIARVTNVEWLLDALYGKVLTDEQYQQVRAEPTNPSKMRKLFSFTPAWNWTCKDLLLQALRESQSYLVEDLER, for which the abundance fitness is -0.011 ± 0.076.
Take FIDQHRAALIARVTNVEWLLDALYGKVLTDEQYQFVRAEPTNPSKMRKLFSFTPAWNWTCKDLLLQALRESQSYLVEDLER: the abundance fitness was -0.84 ± 0.17.
Under FIDQHRATLIARVTNVEWLLDALYGKVLTDEQYQAVRAEPTNPSKMRKLFSFTPAWNWTCKDLLLQALRESQSYLVEDLER stands -0.239 ± 0.069.
On to FIDQHRAALIARVTNVEWLLDALYGKVLTDEQYQAVRAEPTNPSKMWKLFSFTPAWNWTCKDLLLQALRESQSYLVEDLER, for which the abundance fitness was -0.497 ± 0.066.
Under FIDQHRAALIARVTNVEWLLDALYGKVLTDEQYQAVRAEPTNPSKMHKLFSFTPAWNWTCKDLLLQALRESQSYLVEDLER stands -0.452 ± 0.12.
Under FIDQHRAALIARVTNVEWLLDALYGKVLTDEQYQAVRAEPTNPSKMFKLFSFTPAWNWTCKDLLLQALRESQSYLVEDLER stands -0.786 ± 0.18; under FIDQHRAALIARVTNVEWLLDALYGKVLTDEQYQAVRAEPTNPSKMRKLFSFTPAWNWTCKDLLLQALRESQEYLVEDLER, -0.218 ± 0.086.
FIDQHRAALIARVTNVEWLLDALYGKVLTDEQYQAVRAEPTNPSKMRKLFSFTPAWNWTCKDLLLQALRESQAYLVEDLER: the abundance fitness was -0.063 ± 0.076.
Under FIDQHRAALIARVTNVEWLLDALYGKVLTDEQYFAVRAEPTNPSKMRKLFSFTPAWNWTCKDLLLQALRESQSYLVEDLER stands -0.433 ± 0.13.
Under FIDQHRAALIARVTNVEWLLDALYGKVLTDEQYQAVRAEPTNPSKMRKLFSFTPAWNWTCKDLLLQALRESQSYLVEKLER stands -0.303 ± 0.073; under FIDQHRAALIARVTNVEWLLDALYGKVLTDEQYQAVRAEPTNPSKMRKLFSFTPAWNWTCKDLLLQALRESQSYLVESLER, -0.119 ± 0.041.
Under FIDQHRAALIAKVTNVEWLLDALYGKVLTDEQYQAVRAEPTNPSKMRKLFSFTPAWNWTCKDLLLQALRESQSYLVEDLER stands -0.228 ± 0.095; under FIDQHRAALIARVTNVEWLLDALYGKVLTDEQYQAVRAEPTNPSWMRKLFSFTPAWNWTCKDLLLQALRESQSYLVEDLER, -0.852 ± 0.24; under FIDQHRAALIARVTNVEWLLDALYGKVLTDEQYQAVRAEPTNPSRMRKLFSFTPAWNWTCKDLLLQALRESQSYLVEDLER, -0.317 ± 0.053.
Regarding FIDQHRAALIARVTNVEWLLDRLYGKVLTDEQYQAVRAEPTNPSKMRKLFSFTPAWNWTCKDLLLQALRESQSYLVEDLER, the abundance fitness is 0.094 ± 0.04.
Under FIDQHRAALIARVTNVEWLLDALYGKVLTDEQYQAVRAEPTNPSKMRKLFSFTTAWNWTCKDLLLQALRESQSYLVEDLER stands 0 ± 0.069; under FIDQHRAALIARVTNVEWLLDALYYKVLTDEQYQAVRAEPTNPSKMRKLFSFTPAWNWTCKDLLLQALRESQSYLVEDLER, -0.55 ± 0.3; under FIDQHRAALIARVTNVEWLLDALYGKVLTDEQYQAVRAEPTNPSKMRKLFSFTPAWNDTCKDLLLQALRESQSYLVEDLER, 0.453 ± 0.12.
